Assay results from patent US20220088221A1, “SELF-ASSEMBLED PEPTIDE NANOPARTICLE AND USE THEREOF” (THE METHODIST HOSPITAL, priority 2019, published 2022).
“Also recorded” adds a separate entry of the source. Read-outs that look alike come from different tables or passages of the source.

Assay: Self-assembly and size of CPP-peptide/TLR ligand nanoparticles (DLS, AFM)
Assay type: physicochemical
Method: FIG. 3A-1, FIG. 3A-2, FIG. 3B-1, FIG. 3B-2, FIG. 3C-1 and FIG. 3C-2 show self-assembled nanoparticles of TAT-TRP2 with CpG and MPLA (CM for short). […] AFM analysis indicates the size of cross section of the nanoparticle;
Grey bars indicate unstable/polydispersed complex with large PDI (PDI>0.5);
While both CPP-antigen peptide (10 mM) and CpG (10 mM) were soluble in PBS, but once mixed (1:1), precipitations or aggregates were observed. These aggregates were round nanoparticles, with a diameter of […] in size. The self-assembly was believed to occur through electric interaction of positively charged CPPs with negatively charged molecules, as well as hydrophobic interaction between the peptides themselves and monophosphoryl lipid A (MPLA).
MPLA and poly I:C were completely dissolved in sterile ultrapure water at a concentration of 1 mg/mL. To prepare the TAT-peptide vaccine nanoparticles, CpG, MPLA, and poly I:C of indicated volume (shown in Table 3) were mix thoroughly in ultrapure water or buffer by intensive vortex.
Self-assembly of the TAT-peptide nanoparticles was triggered by dropwise addition of TAT-peptide with ultrasonication in iced water bath within 1 min. […] The hydrophobic C-terminus of TRP2 peptide forms a hydrophobic core together with the MPLA via hydrophobic interactions.
Grey bars indicate unstable/polydispersed complexes with large PDI (PDI>0.5).

Row | Sequence | complex / nanoparticle formation with CpG and MPLA (AFM) | complex / nanoparticle formation with CpG and MPLA (AFM) (listed as TRP2)
1 | SYVDFFVWL [TRP2 peptide] | failed to form complex with CpG-MPLA and formed long fibers; also recorded: failed to form complexes | could not form a particle
2 | YGRKKRRQRRRSYVDFFVWL [TAT-TRP2] | formed tight complexes | –
